One block for each substance: values may come before it.
Tests used:
Assay in all cases: SEC; Ni-NTA eluates injected into a HiLoad 16/60 Superdex 200 pg column; elution with 30 mM Tris-HCl pH 7.4; absorbance at 280 nm
cpmCarmine185-186 = molecular target: cpmCarmine185-186
cpmMaroon185-186 = molecular target: cpmMaroon185-186
cpmMaroon196-186 = molecular target: cpmMaroon196-186

percent monomeric (cpmCarmine185-186): 60%
Substance: cpmCarmine185-186

stoichiometry N (cpmMaroon185-186): 2
Substance: cpmMaroon185-186

percent monomeric (cpmMaroon196-186): 70%
Substance: cpmMaroon196-186
